The results in this text go back to PMC8044208 (2021).

B1: Mb(MLKL_32) (protein)
chain: VSSVPTKLEVVAATPTSLLISWDAPAVTVDLYIITYGETGGNSPVQTFEVPGSKSTATISGLSPGVDYTITVYAYSFMYHDYYYPEWSPISINYRT
B2: human MLKL pseudokinase domain, as used for the KD measurements (domain or fragment)
chain: QEQIKEIKKEQLSGSPWILLRENEVSTLYKGEYHRAPVAIKVFKKLQAGSIAIVRQTFNKEIKTMKKFESPNILRIFGICIDETVTPPQFSIVMEYCELGTLRELLDREKDLTLGKRMVLVLGAARGLYRLHHSEAPELHGKIRSSNFLVTQGYQVKLAGFELRKTQTSMSLGTTREKTDRVKSTAYLSPQELEDVFYQYDVKSEIYSFGIVLWEIATGDIPFQGCNSEKIRKLVAVKRQQEPLGEDCPSELREIIDECRAHDPSVRPSVDEILKKLSTFSK

Test [1] deals with B2. Briefly: previously reported.
In the next test the target is Mb(MLKL_26). Briefly: FACS; yeast display.

For orientation: Kd means the constant that tells how readily two partners part at equilibrium.

With B1, binding in test [1] was put at a Kd of 37.1 nM.
Take B2: the affinity with Mb(MLKL_26), expressed as Kd, was 176 nM.
